Measurements: patent EP0672680A1
Square brackets hold non-standard residues; d marks the D form.

Target: bovine lung-derived ANP receptor (bovine)
Assay: competition radioligand binding: displacement of 125I-rat ANP from bovine lung membrane fraction, filter assay

Chain of bovine lung-derived ANP receptor (bovine) (P10730 42-537): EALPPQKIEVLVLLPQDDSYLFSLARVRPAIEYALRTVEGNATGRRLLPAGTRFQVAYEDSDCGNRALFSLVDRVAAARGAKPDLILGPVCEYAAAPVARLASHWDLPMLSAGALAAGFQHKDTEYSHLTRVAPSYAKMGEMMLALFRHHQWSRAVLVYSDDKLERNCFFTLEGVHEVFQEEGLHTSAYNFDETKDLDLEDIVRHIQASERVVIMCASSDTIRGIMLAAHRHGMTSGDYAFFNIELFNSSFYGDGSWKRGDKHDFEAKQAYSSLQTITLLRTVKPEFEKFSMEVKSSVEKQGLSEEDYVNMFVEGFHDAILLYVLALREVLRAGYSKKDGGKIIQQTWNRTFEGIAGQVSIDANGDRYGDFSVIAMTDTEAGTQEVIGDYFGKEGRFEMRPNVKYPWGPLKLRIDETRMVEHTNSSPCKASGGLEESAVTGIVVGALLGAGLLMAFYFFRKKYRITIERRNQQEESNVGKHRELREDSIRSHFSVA

B1: compound (j) (H-Phe-Gly-Gly-D-Arg-Ile-Asp-D-Arg-Ile-NH2) (peptide)
peptide: H-FGG[dR]ID[dR]I-NH2
SMILES: CC[C@H](C)[C@H](NC(=O)[C@@H](CCCNC(=N)N)NC(=O)[C@H](CC(=O)O)NC(=O)[C@@H](NC(=O)[C@@H](CCCNC(=N)N)NC(=O)CNC(=O)CNC(=O)[C@@H](N)Cc1ccccc1)[C@@H](C)CC)C(N)=O
- IC50: 5400 nM

B2: compound (i) (H-Phe-Gly-Gly-D-Arg-Ile-Asp-Arg-Ile-NH2) (peptide)
peptide: H-FGG[dR]IDRI-NH2
SMILES: CC[C@H](C)[C@H](NC(=O)[C@H](CCCNC(=N)N)NC(=O)[C@H](CC(=O)O)NC(=O)[C@@H](NC(=O)[C@@H](CCCNC(=N)N)NC(=O)CNC(=O)CNC(=O)[C@@H](N)Cc1ccccc1)[C@@H](C)CC)C(N)=O
- IC50: 210 nM
